To fix the notation:
T1: His-tagged CEACAM1 (human, UniProt P13688 35-428)
T1 construct: 45 kDa SPR analyte; also called CEACAM1-HIS; CEACAM1 analyte
T1 sequence: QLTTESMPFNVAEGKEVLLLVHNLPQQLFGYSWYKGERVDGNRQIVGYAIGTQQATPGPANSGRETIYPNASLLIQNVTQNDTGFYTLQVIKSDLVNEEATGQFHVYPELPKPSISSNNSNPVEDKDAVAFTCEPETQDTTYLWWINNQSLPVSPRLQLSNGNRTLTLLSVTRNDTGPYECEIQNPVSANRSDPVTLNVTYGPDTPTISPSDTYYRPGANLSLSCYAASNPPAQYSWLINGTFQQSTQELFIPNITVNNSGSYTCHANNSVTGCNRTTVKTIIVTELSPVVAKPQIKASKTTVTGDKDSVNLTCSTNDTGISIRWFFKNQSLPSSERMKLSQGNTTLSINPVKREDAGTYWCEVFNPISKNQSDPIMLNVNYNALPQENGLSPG

B1: VH1/Vκ0 (antibody, IgG4, V domains shown)
VH: EVQLLESGGGLVQPGGSLRLSCAASGFIFSSHGMSWVRQAPGKGLEWVATISSGGTYTYYPDSVKGRFTISRDNSKNTLYLQMNSLKAEDTAMYYCARHDFDYDAAWFAYWGQGTLVTVSS
VL: QIVLTQSPALMSASPGVKVTMTCSANSSVSYMYWYRQKPRSSPKPWIYLTSNLASGVPARFSGSGSGTSYSLTISSMEAEDAATYYCQQWSSNPPTFGSGTKLEIK
notes: IgG4 (S241P), kappa; also called VH1/Vκ0 (control)
B2: VH0/Vκ1 (antibody, IgG4, V domains shown)
VH: B1 VH with L5V, G10D, Q13K, R19K, S21A, A40T, G42D, G44R, S75D, A88S
VL: QIVLTQSPALLSLSPGERATMSCSANSSVSYMYWYRQKPGQAPKPWIYLTSNLASGVPARFSGSGSGTDYTLTISSLEAEDFATYYCQQWSSNPPTFGQGTKLEIK
notes: IgG4 (S241P), kappa; also called VH0/Vκ1 (control)
B3: VH2/Vκ6 (antibody, IgG4, V domains shown)
VH: B1 VH with K87R
VL: DIQLTQSPSFLSASVGDRVTITCRANSSVSYMAWYQQKPGKAPKLLIYLTSNLQSGVPSRFSGSGSGTEFTLTISSLQPEDFATYYCQQWSSNPPTFGQGTKLEIK
notes: IgG4 (S241P), kappa
B4: VH3/Vκ6 (antibody, IgG4, V domains shown)
VH: B1 VH with P61A, K87R
VL: B3 VL
notes: IgG4 (S241P), kappa
B5: VH4/Vκ6 (antibody, IgG4, V domains shown)
VH: B1 VH with A49S, P61A, K87R, M93V
VL: B3 VL
notes: IgG4 (S241P), kappa
B6: VH1/Vκ6 (antibody, IgG4, V domains shown)
VH: B1 VH
VL: B3 VL
notes: IgG4 (S241P), kappa
B7: 8H3_9C2/CP08E05 (antibody, IgG4, V domains shown)
VH: B1 VH with G26E, I28T, S31D, G33A, D100G, D104F, A105P, A106Y, Y110H
VL: EIVLTQSPATLSLSPGERATLSCRANSAVSYMYWYQQKPGQAPRPWIYLTSNRATGVPARFSGSGSGTDYTLTISSLEPEDFAVYYCQQWTTNPPTFGQGTKLEIK
notes: IgG4 (S241P), kappa
B8: 9B3_9E5_8H3/CP08F05 (antibody, IgG4, V domains shown)
VH: B1 VH with I28T, S30N, S31A, G33A, M34I, D100G, D104F, A105P, A106Y, Y110H
VL: B7 VL with T92S
notes: IgG4 (S241P), kappa
B9: 9B3_9E5_8H3/CP08E05 (antibody, IgG4, V domains shown)
VH: B1 VH with I28T, S30N, S31A, G33A, M34I, D100G, D104F, A105P, A106Y, Y110H
VL: B7 VL
notes: IgG4 (S241P), kappa
B10: 8H3_9C2/Vκ8 S29A (antibody, IgG4, V domains shown)
VH: B1 VH with G26E, I28T, S31D, G33A, D100G, D104F, A105P, A106Y, Y110H
VL: B7 VL with T91S, T92S
notes: IgG4 (S241P), kappa
B11: 9B3_9E5/CP08F05 (antibody, IgG4, V domains shown)
VH: B1 VH with I28T, S30N, S31A, G33A, M34I, D100G
VL: B7 VL with T92S
notes: IgG4 (S241P), kappa
B12: 8H3_9E5/CP08F05 (antibody, IgG4, V domains shown)
VH: B1 VH with D100G, D104F, A105P, A106Y, Y110H
VL: B7 VL with T92S
notes: IgG4 (S241P), kappa
B13: 8H3_9E5/Vκ8 S29A (antibody, IgG4, V domains shown)
VH: B1 VH with D100G, D104F, A105P, A106Y, Y110H
VL: B7 VL with T91S, T92S
notes: IgG4 (S241P), kappa
B14: 9B3_9E5_8H3/Vκ8 S29A (antibody, IgG4, V domains shown)
VH: B1 VH with I28T, S30N, S31A, G33A, M34I, D100G, D104F, A105P, A106Y, Y110H
VL: B7 VL with T91S, T92S
notes: IgG4 (S241P), kappa
B15: 8H3_9E5/CP08E05 (antibody, IgG4, V domains shown)
VH: B1 VH with D100G, D104F, A105P, A106Y, Y110H
VL: B7 VL
notes: IgG4 (S241P), kappa
B16: 9B3_9E5/Vκ8 S29A (antibody, IgG4, V domains shown)
VH: B1 VH with I28T, S30N, S31A, G33A, M34I, D100G
VL: B7 VL with T91S, T92S
notes: IgG4 (S241P), kappa

Changes are numbered by the printed parent chain. Names may count otherwise.

One experiment addresses T1, His-tagged CEACAM1. The experiment is described as follows: SPR single-cycle, IgG captured. The procedure: As an alternative approach to assess the binding of the 36 antibody combinations and the three control antibodies to CEACAM1, a kinetic analysis was performed on a Biacore T200 (serial no. 1909913) running Biacore T200 Evaluation Software V2.0.1 (Uppsala, Sweden). All experiments were run at 25° C. with HBS-P+ running buffer (pH 7.4) (GE Healthcare, cat. no. BR100671). All kinetic experiments were performed using His-tagged CEACAM1 as the analyte. For all experiments, antibodies were immobilized onto a Series S Protein A sensor chip surface. For kinetic experiments, the amount of immobilized/captured ligand was limited to avoid mass transfer effects at the surface of the chip with the surface ideally having an analyte binding level (Rₘₐₓ) of 50-150 RUs. Using a MW of 45 kDa for the CEACAM1 analyte, 150 kDa for the antibody ligand (estimated value for IgG), 50 RU for Rmax and the stoichiometry (Sm) as 2 due to the ability of each antibody to bind 2 target molecules, a target response level of ˜75 RUs was set for capture of all the sample antibodies.
Single cycle analysis of the 36 antibody combinations and the three control antibodies was performed on purified antibodies (Vκ1 to Vκ6 variants) or on the supernatants of the transiently transfected HEK EBNA cells (Vκ7 to Vκ12 variants). In some instances, where supernatant was not available, purified chimeric antibody VH0/Vκ0 was spiked into HEK EBNA culture medium to use as a positive control. Antibodies were diluted in HBS-P+ to a concentration of 1 μg/ml (as determined by an IgG quantitation ELISA). At the start of each cycle, antibodies were loaded onto Fc2, Fc3 and Fc4 of a protein A chip and IgG captured at a flow rate of 8 μl/min to give an RU of ˜75. The surface was then allowed to stabilize. Single cycle kinetic data was obtained at a flow rate of 50 μl/min to minimize any potential mass transfer effects. Multiple repeats of the chimeric antibody VH0/Vκ0 were performed to check the stability of the surface and analyte over the kinetic cycles. The signal from the reference channel Fc1 (no antibody) was subtracted from that of Fc2, Fc3 and Fc4 to correct for differences in non-specific binding to a reference surface. A 5 point 2-fold dilution range from 3.125 to 50 nM CEACAM1 without regeneration between each concentration was used.
As usually defined, the Kd is a measure of binding affinity in units of concentration. With B1, the dissociation constant (Kd) was 64 nM and the “relative KD to VH0/Vκ0” value is 1.5.

Turning to B2, the Kd was 49 nM and the “relative KD to VH0/Vκ0” value is 1.2.

Turning to B3, the binding result is listed as “no binding (tested: 50 nM)”.

With B4, the binding result is given as “no binding (tested: 50 nM)”.

Regarding B5, the binding result is on record as “no binding (tested: 50 nM)”.

For the molecule B6, the binding result is reported as “no binding (tested: 50 nM)”.

A further experiment deals with T1, His-tagged CEACAM1. The experiment is described as follows: SPR single-cycle, supernatant IgG captured. The procedure:
In order to assess the binding of the humanized, affinity matured reformatted lead IgGs, single-cycle kinetics analysis was performed on crude supernatants using a Biacore T200 running Biacore T200 Control Software V2.0.1 and Biacore T200 Evaluation Software V3.0. Antibodies were diluted in HBS-P+ to a final concentration of 0.5 μg/ml. At the start of each cycle, antibodies were loaded onto Fc2, Fc3 and Fc4 of the Protein A chip. IgGs were captured at a flow rate of 10 μl/min to give an immobilisation level (RL) of ˜100 RU (a level calculated to obtain a Rₘₐₓ of ˜50-150 RU once the analyte is bound). The surface was then allowed to stabilize. Single-cycle kinetics data was obtained with CEACAM1 as the analyte at a flow rate of 80 μl/min to minimize any potential mass transfer effects. Multiple repeats with the parent (VH1/Vκ8 S29A) antibody were performed to check the stability of the surface and analyte over the kinetic cycles. The signal from the reference channel Fc1 (no antibody) was subtracted from that of Fc2, Fc3 and Fc4 to correct for differences in non-specific binding to the reference surface. A three point, two-fold dilution range from 70 nM to 280 nM CEACAM1 without regeneration between each concentration was used. The signal from each antibody blank run (no CEACAM1) was subtracted to correct for differences in surface stability. The association phase for the three injections of increasing concentrations of CEACAM1 was monitored for 80 seconds each time and a single dissociation phase was measured for 150 seconds following the last injection of CEACAM1. Regeneration of the Protein A surface was conducted using two injections of 10 mM glycine-HCL pH 1.5 followed by a stabilization period of 250 seconds.
Broadly, the koff is a measure of how fast the partners let go of each other. A higher koff goes with fast dissociation. The kon is the second-order rate constant of association. On to B7, for which the dissociation constant (Kd) stood at 110 nM, the koff was found to be 0.0071 s⁻¹, the on-rate (kon) came out at 67000 M⁻¹ s⁻¹ and the “relative KD to parent” value is 5.3.

In the case of B8, the Kd came to 210 nM, the koff is 0.018 s⁻¹, the kon was determined as 86000 M⁻¹ s⁻¹ and the “relative KD to parent” value stood at 2.4.

For the molecule B9, the Kd was found to be 270 nM, the koff is 0.022 s⁻¹, the kon came to 82000 M⁻¹ s⁻¹ and the “relative KD to parent” value was 1.9.

B10: binding was characterised by a dissociation constant (Kd) of 110 nM, the koff came out at 0.0071 s⁻¹, the on-rate constant (kon) was 65000 M⁻¹ s⁻¹ and the “relative KD to parent” value worked out at 5.1.

With B11, the dissociation constant Kd was 95 nM, the koff came out at 0.012 s⁻¹, the kon is 130000 M⁻¹ s⁻¹ and the “relative KD to parent” value is 5.9.

As to B12, the Kd worked out at 280 nM, the koff amounted to 0.028 s⁻¹, the kon came out at 77000 M⁻¹ s⁻¹ and the “relative KD to parent” value stood at 2.

Regarding B13, the Kd is 300 nM, the koff was found to be 0.024 s⁻¹, the kon turned out to be 81000 M⁻¹ s⁻¹ and the “relative KD to parent” value was determined as 1.9.

In the case of B14, the Kd worked out at 210 nM, the koff is 0.02 s⁻¹, the kon was found to be 95000 M⁻¹ s⁻¹ and the “relative KD to parent” value was 2.4.

For B15, the Kd stood at 320 nM, the koff was determined as 0.025 s⁻¹, the kon is 79000 M⁻¹ s⁻¹ and the “relative KD to parent” value turned out to be 1.8.

B16: the affinity, expressed as Kd, was 150 nM; the koff came out at 0.021 s⁻¹; the kon worked out at 140000 M⁻¹ s⁻¹; the “relative KD to parent” value turned out to be 3.8.

For the origin of these results see patent US20250074980A1 (BRIGHAM AND WOMEN S HOSPITAL, published 2025).
